{"source": "patent US20170119925", "system": "T1, Gln-Pro-Gln-Gly-Leu-Ala-Lys (QPQGLAK) peptide crosslinker", "T1 sequence": "QPQGLAK", "data": [{"substance": "general collagenase from Clostridium histolyticum", "values": [{"measurement": "kcat/Km (s^-1M^-1), digestion kinetics by HPLC", "value": 32, "unit": "s^-1M^-1"}]}]}
